Experiments:
Experiment in all cases: flow cytometry on cells
[1] = target: Khosta-2 RBD, yeast-displayed (bat sarbecovirus Khosta-2)
[2] = target: WIV16 RBD, yeast-displayed (bat sarbecovirus WIV16)
[3] = target: BANAL-236 RBD, yeast-displayed (bat sarbecovirus BANAL-236)
[4] = target: BANAL-103 RBD, yeast-displayed (bat sarbecovirus BANAL-103)
[5] = target: Rs4874 RBD, yeast-displayed (bat sarbecovirus Rs4874)

Sequence of CDY14HL-Fc1 (Q9BYF1 18-615): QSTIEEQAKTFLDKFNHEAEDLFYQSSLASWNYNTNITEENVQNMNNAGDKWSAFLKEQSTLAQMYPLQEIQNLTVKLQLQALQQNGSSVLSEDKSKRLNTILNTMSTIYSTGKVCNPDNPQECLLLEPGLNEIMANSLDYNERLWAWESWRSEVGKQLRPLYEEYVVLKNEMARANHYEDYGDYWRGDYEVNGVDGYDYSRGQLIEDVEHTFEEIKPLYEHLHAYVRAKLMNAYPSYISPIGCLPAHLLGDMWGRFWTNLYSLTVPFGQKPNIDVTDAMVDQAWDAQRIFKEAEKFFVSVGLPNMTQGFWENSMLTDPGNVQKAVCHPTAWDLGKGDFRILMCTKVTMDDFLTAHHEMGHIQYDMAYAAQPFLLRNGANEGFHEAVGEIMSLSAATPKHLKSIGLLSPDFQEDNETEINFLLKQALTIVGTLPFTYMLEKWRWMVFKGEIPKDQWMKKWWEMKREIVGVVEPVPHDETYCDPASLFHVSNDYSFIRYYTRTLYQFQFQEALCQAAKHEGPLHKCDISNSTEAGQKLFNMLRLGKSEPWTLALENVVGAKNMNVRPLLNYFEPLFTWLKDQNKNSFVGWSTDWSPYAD

CDY14HL-Fc1 (from UniProt Q9BYF1 18-615) (Fc fusion)
Kd [1]: 1.9 nM | Kd [2]: 0.24 nM | Kd [3]: 0.24 nM | Kd [4]: 0.3 nM | Kd [5]: 0.23 nM
